In experiment [1] the target is cross-linked RlpA-Δ32·MltF2 complex (SPR chip) (P. aeruginosa PAO1) (UniProt Q9X6V6). The experiment can be described thus: SPR. (In SPR one partner is held on a chip, and binding of the other changes the refractive index at the surface.)
For experiment [2], the target named is RlpA-Δ32 (P. aeruginosa PAO1) (UniProt Q9X6V6). The experiment can be described thus: SPR.
The target in experiment [3] is RlpA-Δ32·MltF2 complex (MST) (P. aeruginosa PAO1) (UniProt Q9X6V6). The experiment can be described thus: MST.
Experiment [4] addresses RlpA-Δ32, fluorescently labeled (P. aeruginosa PAO1) (UniProt Q9X6V6). The experiment can be described thus: MST.
Experiment [5] concerns the target RlpA-SPOR (P. aeruginosa PAO1) (UniProt Q9X6V6). The experiment can be described thus: SPR.
Experiment [6] has the same target. The experiment can be described thus: ITC. A general note: In ITC the heat of successive injections is recorded.

pKd: −log10 of the molar value.

In experiment [1], “PBP1a (from UniProt Q07806 27-822) (enzyme)” gave a pKd of 6.55, a koff of 0.0048 s⁻¹ and a kon of 51700 M⁻¹ s⁻¹.

Take PBP1b (enzyme): in experiment [2], the pKd is 7.26, the koff amounted to 0.0005 s⁻¹ and the kon stood at 9100 M⁻¹ s⁻¹. The same substance had a pKd in experiment [3] of 7.24. For the same substance, in experiment [4], the pKd is 7.80.

As for SltB3 (enzyme), the pKd is 5.67 in experiment [5]; 6.85 in experiment [2]; 7.10 in experiment [6]; 6.41 in experiment [3]; 7.04 in experiment [4]. Also, the koff in experiment [5] and in experiment [2] was 0.00079 s⁻¹ each time. Also, the kon was 370 M⁻¹ s⁻¹ in experiment [5] and 5500 M⁻¹ s⁻¹ in experiment [2]. For the same substance, the stoichiometry N in experiment [6] came to 1.

One may read the pKd as −log10 of the Kd, conventionally taken in molar units. Read a low pKd as a high Kd. As a reminder, the koff is the first-order rate constant of dissociation. High values mean fast dissociation, low ones slow dissociation. One may read the kon as the second-order rate constant of association. A lower kon goes with slower complex formation. By stoichiometry N is commonly meant the number of molecules, sites or subunits per partner or assembly.

Source of the values: article PMC9712689.
